T1: cPD-1 on CHOS-cPD-1 cells (Macaca fascicularis, UniProt Q15116 25-288 (human entry))
T1 chain: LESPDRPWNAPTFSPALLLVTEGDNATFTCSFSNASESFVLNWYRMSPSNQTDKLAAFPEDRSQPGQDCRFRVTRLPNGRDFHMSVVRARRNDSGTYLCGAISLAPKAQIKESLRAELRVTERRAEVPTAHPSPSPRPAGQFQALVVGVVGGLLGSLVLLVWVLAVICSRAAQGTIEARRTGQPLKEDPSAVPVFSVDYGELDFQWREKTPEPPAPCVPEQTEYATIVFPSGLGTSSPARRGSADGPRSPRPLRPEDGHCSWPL

T2: hCD32A (167 His, His Tag, Sino Biological, 10374-H08C1) (human, UniProt P12318 34-218)
T2 construct: Bought protein; not shown: His tag
T2 sequence (looked up): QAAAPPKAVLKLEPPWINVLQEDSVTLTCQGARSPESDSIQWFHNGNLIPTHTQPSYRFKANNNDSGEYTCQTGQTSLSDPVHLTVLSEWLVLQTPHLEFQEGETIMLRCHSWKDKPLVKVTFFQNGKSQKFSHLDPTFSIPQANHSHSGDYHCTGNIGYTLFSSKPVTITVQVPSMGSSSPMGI

T3: hCD32B (ECD, His tag, Sino Biological, 10259-H08C) (human, UniProt P31994 43-217)
T3 construct: extracellular domain; Bought protein; not shown: His tag
T3 sequence (looked up): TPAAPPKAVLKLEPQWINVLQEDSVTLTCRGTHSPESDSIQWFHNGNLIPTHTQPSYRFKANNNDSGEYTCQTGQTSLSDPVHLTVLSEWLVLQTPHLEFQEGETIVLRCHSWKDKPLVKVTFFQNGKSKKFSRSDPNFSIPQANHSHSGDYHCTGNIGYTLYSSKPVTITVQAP

T4: cPD-1 ECD-Avi-His (Macaca fascicularis, UniProt Q15116 25-170 (human entry))
T4 construct: tied to the construct by its name only; not shown: Avi tag and His tag
T4 chain: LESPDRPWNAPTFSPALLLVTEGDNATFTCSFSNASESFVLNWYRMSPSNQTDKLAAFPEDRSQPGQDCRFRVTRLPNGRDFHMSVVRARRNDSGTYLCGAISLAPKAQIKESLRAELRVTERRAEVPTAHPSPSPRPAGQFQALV

B1: B1-1B5-H1L1 (antibody, human IgG1, kappa, V domains shown)
VH: EVQLQQSGAELVKPGASVKMSCKAFGYTFTNYPIEWMKQSHGKSLEWIGNFHPYNDDTKYNEKFKGKAKLTVEKSSSTVYLELSRLTSDDSAVYYCAREDYGTYGGFAYWGQGTLVTVSS
VL: EITVTQSPAIMSASPGEKVTMTCRASSSVSSSYLLWYQQKSGASPKLWIYSTSNLASGVPARFSGSGSGTSYSLTISSVEAEDAATYYCQQYSGYPLTFGAGTKLELKR
B2: B1-1C4-H1L1 (antibody, human IgG1, kappa, V domains shown)
VH: EVQLQQSGDDLVKPGASVKLSCKASGYTFTSYWITWIKQRPGQGLEWIGRIAPGSGSIYYDEMFKDKATLTVDPSSSTAYIQLSSLSSEDSAVYFCARLGNYGWTMDYWGQGTSVTVSS
VL: DIVMTQTPKFLLVSAGDRVTITCKASQSVTNNVAWYQQAPGQSPKLLIYYVSNRYTGVPDRFAGSGYGTDFTFTISTVQAEDLAVYFCQQDYSSWTFGGGTKLEIKR
B3: 1C4-zu1-hIgG1 (antibody)
heavy: not shown
light: DIVMTQSPKSLAVSLGERATINCKASQSVTNNVAWYQQKPGQPPKLLIYYVSNRYTGVPDRFSGSGYGTDFTLTISSLQAEDVAVYFCQQDYSSWTFGGGTKVEIKRTVAAPSVFIFPPSDEQLKSGTASVVCLLNNFYPREAKVQWKVDNALQSGNSQESVTEQDSKDSTYSLSSTLTLSKADYEKHKVYACEVTHQGLSSPVTKSFNRGEC
notes: Humanized form of B1-1C4-H1L1; human IgG1 / kappa
B4: 1C4-zu1-hIgG1 DD (antibody)
heavy: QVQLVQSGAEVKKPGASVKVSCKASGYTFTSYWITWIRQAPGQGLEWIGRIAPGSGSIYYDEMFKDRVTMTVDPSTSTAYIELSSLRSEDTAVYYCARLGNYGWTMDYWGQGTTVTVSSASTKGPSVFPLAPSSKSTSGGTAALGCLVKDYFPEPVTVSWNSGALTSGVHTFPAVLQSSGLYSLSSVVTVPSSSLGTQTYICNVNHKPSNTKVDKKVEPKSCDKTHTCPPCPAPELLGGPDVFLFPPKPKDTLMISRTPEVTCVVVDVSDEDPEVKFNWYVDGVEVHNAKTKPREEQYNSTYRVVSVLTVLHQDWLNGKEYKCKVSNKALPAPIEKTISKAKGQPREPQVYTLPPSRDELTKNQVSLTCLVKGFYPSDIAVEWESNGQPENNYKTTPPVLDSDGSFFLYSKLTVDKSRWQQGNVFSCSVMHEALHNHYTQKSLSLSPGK
light: B3 light
notes: Fc mutant of 1C4-zu1-hIgG1 with S239D/H268D (EU numbering)
B5: 1B5-zu1-hIgG1 (antibody)
heavy: not shown
light: EIVLTQSPATLSLSPGERATLTCRASSSVSSSYLLWYQQKSGAAPRLWIYSTSNLASGVPARFSGSGSGTDFTLTISSLEPEDFATYYCQQYSGYPLTFGQGTKLEIKRTVAAPSVFIFPPSDEQLKSGTASVVCLLNNFYPREAKVQWKVDNALQSGNSQESVTEQDSKDSTYSLSSTLTLSKADYEKHKVYACEVTHQGLSSPVTKSFNRGEC
notes: Humanized form of B1-1B5-H1L1; human IgG1 / kappa
B6: 1B5-zu1-hIgG1 DD (antibody)
heavy: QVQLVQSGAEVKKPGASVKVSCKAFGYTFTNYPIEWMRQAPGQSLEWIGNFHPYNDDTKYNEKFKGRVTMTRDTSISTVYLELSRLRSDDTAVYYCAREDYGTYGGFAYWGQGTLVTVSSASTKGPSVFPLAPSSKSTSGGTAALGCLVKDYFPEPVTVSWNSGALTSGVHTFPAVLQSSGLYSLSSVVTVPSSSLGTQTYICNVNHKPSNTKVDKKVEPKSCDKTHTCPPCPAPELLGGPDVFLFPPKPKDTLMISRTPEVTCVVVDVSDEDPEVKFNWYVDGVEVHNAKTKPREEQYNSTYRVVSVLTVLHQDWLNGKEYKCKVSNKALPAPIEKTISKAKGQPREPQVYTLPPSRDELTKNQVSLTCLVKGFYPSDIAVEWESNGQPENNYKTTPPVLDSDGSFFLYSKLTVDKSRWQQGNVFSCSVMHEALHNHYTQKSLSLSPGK
light: B5 light
notes: Fc mutant of 1B5-zu1-hIgG1 with S239D/H268D (EU numbering)

Each binder was assayed against T5, PD1 on Jurkat-PD1-NFAT reporter cells (UniProt Q15116 25-288, limits assumed) (assay: cell-based or functional assay).
T5 sequence (Q15116 25-288 limits assumed): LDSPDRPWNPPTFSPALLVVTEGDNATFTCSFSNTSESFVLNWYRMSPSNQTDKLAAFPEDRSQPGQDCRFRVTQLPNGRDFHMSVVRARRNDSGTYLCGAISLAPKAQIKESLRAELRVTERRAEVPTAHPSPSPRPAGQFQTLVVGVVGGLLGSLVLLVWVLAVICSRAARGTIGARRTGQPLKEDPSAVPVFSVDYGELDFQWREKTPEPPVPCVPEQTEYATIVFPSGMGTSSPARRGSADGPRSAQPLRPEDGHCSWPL

| Binder | EC50 of inhibition of Jurkat-PD1-NFAT reporter cell activation [nM] |
| --- | --- |
| B1 | 0.12 |
| B2 | 0.14 |

Molecular target: T5, PD1 on Jurkat-PD1-NFAT reporter cells
Test: cell-based or functional assay
Remark: another data set of the same source

| Binder | EC50 of inhibition of Jurkat-PD1-NFAT reporter cell activation [nM] |
| --- | --- |
| B3 | 0.12 |
| B4 | 0.16 |
| B5 | 0.13 |
| B6 | 0.15 |

These binders were tested against T6, hPD-1 on CHOS-hPD-1 cells (Homo sapiens, UniProt Q15116 25-288) (assay: cell-based or functional assay).
T6 sequence (Q15116 25-288 limits assumed): as above

| Binder | EC50 of ADCC (LDH release, human NK cells, target cells CHOS-hPD-1) [nM] |
| --- | --- |
| B3 | 0.0019 |
| B4 | 0.00033 |
| B5 | 0.00512 |
| B6 | 0.00044 |

Molecular target: T1, cPD-1 on CHOS-cPD-1 cells
Test: flow cytometry on CHOS-cPD-1 cells, MFI, 4-parameter fit

| Binder | EC50 [nM] |
| --- | --- |
| B3 | 20.3 |
| B4 | 20.1 |
| B5 | 20.2 |
| B6 | 19.9 |

What follows are binders tested against T6, hPD-1 on CHOS-hPD-1 cells (assay: flow cytometry on CHOS-hPD-1 cells, MFI, 4-parameter fit).

| Binder | EC50 [nM] |
| --- | --- |
| B3 | 14.3 |
| B4 | 13.7 |
| B5 | 11.9 |
| B6 | 12.1 |

These binders were tested against T2, hCD32A (167 His, His Tag, Sino …) (assay: SPR; ratio against 1B5-zu1-hIgG1; end of the range assigned by Table 7).

| Binder | fold higher affinity than the antibody without DD [fold] |
| --- | --- |
| B6 | 3 to 4 |

The binders below were run against T3, hCD32B (ECD, His tag, Sino Biological, …) (assay: SPR; ratio against 1B5-zu1-hIgG1; end of the range assigned by Table 8).

| Binder | fold higher affinity than the antibody without DD [fold] |
| --- | --- |
| B6 | 6 to 9 |

Each binder was assayed against T7, hCD16A(158F)-ECD-C-his (human, UniProt P08637 17-208) (assay: SPR; ratio against 1B5-zu1-hIgG1; end of the range assigned by Table 9).
T7 construct: extracellular domain; Homemade; not shown: C-terminal His tag
T7 sequence (P08637 17-208): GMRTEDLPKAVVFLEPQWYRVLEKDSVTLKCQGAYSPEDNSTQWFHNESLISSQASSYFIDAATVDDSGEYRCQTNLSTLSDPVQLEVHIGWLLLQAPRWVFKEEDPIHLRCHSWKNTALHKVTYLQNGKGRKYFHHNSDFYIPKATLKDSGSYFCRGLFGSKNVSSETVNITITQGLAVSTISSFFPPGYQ

| Binder | fold higher affinity than the antibody without DD [fold] |
| --- | --- |
| B6 | 3 to 6 |

The binders below were run against T2, hCD32A (167 His, His Tag, Sino …) (assay: SPR; ratio against 1C4-zu1-hIgG1; end of the range assigned by Table 7).

| Binder | fold higher affinity than the antibody without DD [fold] |
| --- | --- |
| B4 | 3 to 4 |

Each binder was assayed against T3, hCD32B (ECD, His tag, Sino Biological, …) (assay: SPR; ratio against 1C4-zu1-hIgG1; end of the range assigned by Table 8).

| Binder | fold higher affinity than the antibody without DD [fold] |
| --- | --- |
| B4 | 6 to 9 |

These binders were tested against T7, hCD16A(158F)-ECD-C-his (assay: SPR; ratio against 1C4-zu1-hIgG1; end of the range assigned by Table 9).

| Binder | fold higher affinity than the antibody without DD [fold] |
| --- | --- |
| B4 | 3 to 6 |

Each binder was assayed against T8, hCD16A(158V)-ECD-C-his (human, UniProt P08637 17-208) (assay: SPR; ratio against 1B5-zu1-hIgG1; end of the range assigned by Table 10).
T8 construct: extracellular domain; Homemade; not shown: C-terminal His tag
T8 sequence (P08637 17-208 F176V): as the sequence (P08637 17-208) above, with F160V counted along it

| Binder | fold higher affinity than the antibody without DD [fold] |
| --- | --- |
| B6 | 3 to 4 |

What follows are binders tested against T8, hCD16A(158V)-ECD-C-his (assay: SPR; ratio against 1C4-zu1-hIgG1; end of the range assigned by Table 10).

| Binder | fold higher affinity than the antibody without DD [fold] |
| --- | --- |
| B4 | 3 to 4 |

Each binder was assayed against T9, hPD-1 ECD-Avi-His (human, UniProt Q15116 25-170) (assay: SPR (Biacore 8K), antibody captured on Protein A chip, antigen flowed as analyte).
T9 construct: tied to the construct by its name only; not shown: Avi tag and His tag
T9 sequence (Q15116 25-170): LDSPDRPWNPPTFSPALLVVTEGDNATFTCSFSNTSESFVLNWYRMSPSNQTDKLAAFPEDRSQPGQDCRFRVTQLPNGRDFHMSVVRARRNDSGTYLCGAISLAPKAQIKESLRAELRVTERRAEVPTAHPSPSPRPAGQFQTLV

| Binder | Kd [nM] | koff [s⁻¹] | kon [M⁻¹ s⁻¹] |
| --- | --- | --- | --- |
| B3 | 8.26 | 0.00195 | 236000 |
| B4 | 8.05 | 0.00194 | 240000 |
| B5 | 11.8 | 0.0024 | 204000 |
| B6 | 11.1 | 0.00231 | 209000 |

Molecular target: T4, cPD-1 ECD-Avi-His
Test: as above

| Binder | Kd [nM] | koff [s⁻¹] | kon [M⁻¹ s⁻¹] |
| --- | --- | --- | --- |
| B3 | 15.6 | 0.00392 | 251000 |
| B4 | 15.2 | 0.00393 | 259000 |
| B5 | 38.5 | 0.00841 | 219000 |
| B6 | 35.1 | 0.00856 | 243000 |

The binders below were run against T2, hCD32A (167 His, His Tag, Sino …) (assay: SPR (Biacore 8K), His-tagged Fc receptor captured by anti-His antibody on CM5 chip, antibody flowed as analyte).

| Binder | Kd [nM] |
| --- | --- |
| B3 | 4940 |
| B4 | 1610 |
| B5 | 5430 |
| B6 | 1470 |

The binders below were run against T3, hCD32B (ECD, His tag, Sino Biological, …) in the same assay as above.

| Binder | Kd [nM] |
| --- | --- |
| B3 | 10000 |
| B4 | 1680 |
| B5 | 13400 |
| B6 | 1530 |

Each binder was assayed against T7, hCD16A(158F)-ECD-C-his in the same assay as above.

| Binder | Kd [nM] | koff [s⁻¹] | kon [M⁻¹ s⁻¹] |
| --- | --- | --- | --- |
| B3 | 222 | 0.0248 | 112000 |
| B4 | 62.7 | 0.0423 | 674000 |
| B5 | 326 | 0.03 | 92100 |
| B6 | 51.8 | 0.0354 | 684000 |

Each binder was assayed against T8, hCD16A(158V)-ECD-C-his in the same assay as above.

| Binder | Kd [nM] | koff [s⁻¹] | kon [M⁻¹ s⁻¹] |
| --- | --- | --- | --- |
| B3 | 80.2 | 0.00775 | 96600 |
| B4 | 25.4 | 0.0113 | 445000 |
| B5 | 83 | 0.00798 | 96100 |
| B6 | 21.5 | 0.0103 | 481000 |
